Target: SARS-CoV-2 RBD-mFc (SARS-CoV-2, reference (Wuhan-Hu-1) by …, UniProt P0DTC2)
Assay: flow cytometry on cells

B1: mAb-82 (antibody, V domains shown)
VH: QVQLVQSGAEVKKPGSSVKVSCKASGGTFSSYAISWVRQAPGQGLEWMGGIIPIFGTANYAQKFQGRVTITADESTSTAYMELSSLRSEDTAVYYCARGNDDSSGYYSHYYYGMDVWGQGTTVTVSS
VL: QTVVTQEPSFSVSPGGTVTLTCGLSSGSVSTSYYPSWYQQTPGQAPRTLIYSTNTRSSGVPDRFSGSILGNKAALTITGAQADDESDYYCVLYMGSGAVFGGGTQLTVL
B1: binds.
